± gives the uncertainty stated by the source.
B1: Gamma-crystallin S, residues 96 to 176; numbered along this chain, P22914 (parent)
chain: IQIFEKGDFSGQMYETTEDCPSIMEQFHMREIHSCKVLEGVWIFYELPNYRGRQYLLDKKEYRKPIDWGAASPAVQSFRRI

Variants of: B1
Experiment: abundance fitness (aPCA) (normalised: wild type 0, dead -1); higher = more abundant; growth selection in yeast, the domain comes from the species named
Details: Homo sapiens

Abundance fitness, by site and new letter:
F4: K -0.193 ± 0.19 | W -0.067 ± 0.056 | T -0.585 ± 0.094 | Y -0.094 ± 0.096 | M -0.045 ± 0.064 | I -0.987 ± 0.14 | C -0.008 ± 0.079 | A -0.275 ± 0.05 | P -0.967 ± 0.18 | R -0.945 ± 0.11 | N -0.231 ± 0.11 | Q -0.868 ± 0.14
F9: D -0.409 ± 0.061 | I -0.009 ± 0.083 | K -0.095 ± 0.072 | Q 0.027 ± 0.071 | R -0.126 ± 0.037 | V -0.12 ± 0.036 | T -0.051 ± 0.057 | H 0.067 ± 0.09 | W -0.018 ± 0.053 | N 0.068 ± 0.082 | M 0.061 ± 0.068 | E -0.18 ± 0.049 | A -0.064 ± 0.035 | S -0.068 ± 0.042 | G -0.035 ± 0.03 | P -0.481 ± 0.052 | Y -0.008 ± 0.092 | C 0.054 ± 0.056
K6: G 0.004 ± 0.044 | R -0.047 ± 0.048 | M 0.049 ± 0.087 | Y -0.033 ± 0.096 | I -0.009 ± 0.1 | V 0.033 ± 0.062 | E 0 ± 0.08 | L -0.058 ± 0.067 | T 0.007 ± 0.095 | A 0.007 ± 0.066 | H -0.02 ± 0.15 | D 0.015 ± 0.085 | F 0.099 ± 0.13 | S 0.085 ± 0.06 | P -1.1 ± 0.21 | Q -0.056 ± 0.074
Q2: I 0.221 ± 0.41 | A -0.075 ± 0.042 | K 0.022 ± 0.085 | V -0.041 ± 0.056 | F 0.17 ± 0.16 | M -0.077 ± 0.1 | Y -0.099 ± 0.15 | S 0.039 ± 0.075 | W 0.003 ± 0.068 | C 0.027 ± 0.13 | N 0.124 ± 0.13 | G 0.035 ± 0.046 | T -0.066 ± 0.087 | R 0.027 ± 0.04 | D -0.053 ± 0.084 | H 0.088 ± 0.086 | P -0.876 ± 0.22
G7: S -0.01 ± 0.054 | V -0.012 ± 0.043 | K 0.079 ± 0.055 | E -0.027 ± 0.061 | Q -0.099 ± 0.064 | M 0.012 ± 0.07 | A 0.043 ± 0.043 | P 0.007 ± 0.066 | I 0.034 ± 0.14 | N -0.16 ± 0.13 | Y -0.025 ± 0.086 | T -0.03 ± 0.042 | D -0.019 ± 0.091 | C -0.367 ± 0.086 | F 0.084 ± 0.12 | R 0.052 ± 0.033 | H 0.013 ± 0.076 | W -0.041 ± 0.049
S10: F -0.091 ± 0.088 | L 0.005 ± 0.041 | A -0.039 ± 0.052 | C -0.081 ± 0.088 | M -0.033 ± 0.068 | N 0.069 ± 0.1 | Q 0.022 ± 0.069 | D -0.12 ± 0.1 | K 0.006 ± 0.08 | R -0.018 ± 0.038 | W -0.047 ± 0.051 | G -0.004 ± 0.038 | P -0.733 ± 0.097 | Y 0.068 ± 0.089 | I -0.059 ± 0.091 | V -0.003 ± 0.045 | E 0.013 ± 0.064 | T -0.157 ± 0.061
E5: K -0.007 ± 0.094 | W 0.006 ± 0.072 | M 0.028 ± 0.12 | I 0.014 ± 0.086 | D -0.05 ± 0.062 | C -0.022 ± 0.064 | H -0.041 ± 0.11 | Y 0.083 ± 0.1 | Q 0.12 ± 0.092 | L 0.013 ± 0.051 | P -0.01 ± 0.065 | R -0.002 ± 0.047 | T -0.07 ± 0.094 | S -0.046 ± 0.04 | N -0.062 ± 0.13 | V 0.051 ± 0.039 | F 0.057 ± 0.084 | G -0.02 ± 0.039
I3: E -1 ± 0.22 | A -0.141 ± 0.061 | M -0.018 ± 0.072 | Q -1.08 ± 0.23 | D -0.705 ± 0.38 | R -0.703 ± 0.081 | T -0.185 ± 0.053 | N -0.627 ± 0.14 | Y -0.286 ± 0.1 | K -1.12 ± 0.24 | F 0.031 ± 0.11 | L -0.02 ± 0.053 | H -0.777 ± 0.26 | S -0.931 ± 0.13 | W -0.047 ± 0.056 | P -1.2 ± 0.23 | C -0.029 ± 0.092 | G -0.716 ± 0.067
G11: V -0.208 ± 0.04 | Q -0.003 ± 0.044 | I -0.372 ± 0.17 | W -0.171 ± 0.045 | H -0.021 ± 0.074 | F -0.294 ± 0.069 | Y -0.094 ± 0.097 | D -0.009 ± 0.088 | R -0.135 ± 0.032 | C 0.066 ± 0.057 | A 0.041 ± 0.042 | S 0.06 ± 0.035 | E -0.01 ± 0.062 | N -0.002 ± 0.14 | M 0.062 ± 0.055 | P 0.012 ± 0.057 | K 0.105 ± 0.081 | L -0.137 ± 0.041
D8: Y 0.078 ± 0.063 | N 0.074 ± 0.087 | F 0.066 ± 0.1 | C 0.111 ± 0.092 | V 0.039 ± 0.036 | L 0.074 ± 0.038 | K 0.162 ± 0.085 | R 0.081 ± 0.035 | T 0.063 ± 0.052 | A 0.038 ± 0.047 | I 0.025 ± 0.084 | H 0.088 ± 0.083 | S 0.093 ± 0.039 | P -0.012 ± 0.062

Source: the Human Domainome abundance scans (Beltran et al. 2025)
